This data set deals with the molecule itself. The data set is described as follows: NMR signal intensities and chemical shifts (1H-15N correlation spectra) of the mutant against the wild type; per-residue chemical shift difference and intensity ratio between MEC-2 C-terminal domain WT and R385H, no partner added.

Consider one protein from paper PMC10635833, “A MEC-2/stomatin condensate liquid-to-solid phase transition controls neuronal mechanotransduction during touch sensing” (Nature Cell Biology, 2023).

B1: MEC-2 C-terminal domain R385H mutant (domain or fragment, C. elegans, UniProt Q27433 371-481, looked up)
chain: PPKVEEPPSLPKKIHSCCLYKYPDWVQGMVGSEGGGGHGHSHGGGGGGLGSSQGAFHPSQAGSGPSTTTTSGRPLLRSMREAQFHSAAPPISAPNQSQTSVSQLDPALLIR
notes: MEC-2 (stomatin), C. elegans, C-terminal domain, residues 371-481 as for the wild-type construct, with R385H (allele u26); also called MEC-2 (R385H); u26 allele
As to B1, the binding result is given as “binds”.
